We go through 4 molecules from patent publication US20190388532A1 (ENTEROME S A, published 2019).

The target in this assay is T1, HLA-A*0201 molecule expressed by T2 cells (human).
T1 construct: MHC class I molecule on T2 cells
The assay is described as follows: T2 cell HLA-A*0201 surface expression assay, flow cytometry; relative affinity = peptide concentration inducing 20% HLA-A*0201 expression / that of reference peptide HIV pol 589-597. Here is the method: T2 cells (2.10⁵ cells per well) were incubated with decreasing conceontrations of peptides from 100 μM to 0.1 μM in a AIMV medium supplemented with 100 ng/μl of human β2 m at 37° C. for 16 hours. Cells were then washed two times and marked with the anti-HLA-A2 antibody coupled to PE (clone BB7.2, BD Pharmagen).
The experimental protocol, materials and methods correspond to those outlined in Example 3, with the only difference that the above mentioned antigenic peptides were used.

ILPFGFILA [peptide 1I9A]: the “In vitro binding affinity” value was found to be 2.22.

B1: IL13RA2-B (antigenic peptide FLPFGFILV, SEQ ID No 31) (peptide)
peptide: FLPFGFILV
notes: also called candidate peptide; IL13RA2-B pAg
Take B1: the “In vitro binding affinity” value turned out to be 0.49.

For FLPFGFILM [peptide 1F9M], the “In vitro binding affinity” value amounted to 2.62.

As for ALPFGFILV (also called IL13RA2-ST) [peptide 1A9V (Eguchi et al. 2006)], the “In vitro binding affinity” value worked out at 3.06.
